{"source": "patent US20250295799A1", "about": "(Zymeworks, published 2025)", "key": {"[1]": {"molecular_target": "human GPC3 on cells (human, UniProt P51654 25-554)", "test": "cell-based or functional assay"}, "[2]": {"molecular_target": "T1, recombinant cynomolgus GPC3 (glypican-3) (cynomolgus monkey, UniProt A0A2K5VK50 24-558)", "T1 construct": "also called cynoGPC3", "test": "SPR (Biacore T200), antibody captured by anti-Fc, GPC3 injected, single-cycle kinetics, 1:1 fit; average", "description": "(§1) CM5 Series S sensor chip, Biacore™ amine coupling kit (NHS, EDC and 1 M ethanolamine), and 10 mM sodium acetate buffers were purchased from Cytiva Life Sciences (Mississauga, ON, Canada). PBS running buffer with 0.05% Tween20 (PBST) was purchased from Teknova Inc. (Hollister, CA). Antigens: recombinant human and cynomolgus GPC3 was purchased from ACROBiosystems (Newark, DE) and SEC purified on a Superdex 200 10/300 GL column (Cytiva) in PBST running buffer at 0.8 mL/min.\n(§2) Screening of the antibodies for binding to GPC3 antigen was conducted via anti-Fc capture of antibodies, followed by the injection of five concentrations of GPC3. The anti-Fc surface was prepared on a CM5 Series S sensor chip by standard amine coupling methods as described by the manufacturer (Cytiva Life Sciences, Mississauga, ON, Canada). […] Approximately 150-400 RUs of each antibody (5-20 μg/mL) were captured on the goat anti-human IgG surface by injecting at 10 μL/min for 60s. Using single-cycle kinetics, five concentrations of a two-fold dilution series of human or cynomolgus GPC3 starting at 40 nM, 20 nM, 10 nM, or 5 nM depending on the antibody, with a blank buffer control were injected at 20 μL/min for 180s of contact time, followed by 180 s dissociation phase, resulting in sensorgrams with a buffer blank reference. The anti-Fc surface was regenerated to prepare for the next injection cycle by one pulse of 10 mM glycine/HCl pH 1.5 for 120 s at 40 μL/min. Blank-subtracted sensorgrams were analyzed and fit to the 1:1 Langmuir binding model using Biacore™ T200 Evaluation Software v3.2."}, "[3]": {"molecular_target": "T2, recombinant human GPC3 (glypican-3) (human, UniProt P51654 25-559)", "T2 construct": "also called huGPC3; hGPC3", "test": "SPR (Biacore T200), antibody captured by anti-Fc, GPC3 injected", "description": "as §1, §2"}, "[4]": {"molecular_target": "T2, recombinant human GPC3 (glypican-3)", "test": "SPR (Biacore T200), antibody captured by anti-Fc, GPC3 injected, single-cycle kinetics, 1:1 fit; average", "description": "as §1, §2"}, "[5]": {"molecular_target": "T1, recombinant cynomolgus GPC3 (glypican-3)", "test": "SPR; Kd on human GPC3 divided by Kd on cynomolgus GPC3", "description": "as §1, §2"}}, "data": [{"binder": "v36180-MC-GGFG-AM-Compound 139 (DAR8) (antibody, human IgG1, kappa, V domains shown, MC-GGFG-AM-Compound 139 drug-linker on reduced cysteines, sites not stated; MC-GGFG-AM-Compound 139 drug-linker on reduced cysteines, sites not stated; DAR 8 for the whole antibody) VH: EVQLVQSGAEVKKPGSSVKVSCKASGYTFTDYEMHWVRQAPGQGLEWIGAIDPETGDTAYNQKFKGRATLTADKSTSTAYMELSSLRSEDTAVYYCTRYFSFAYWGQGTLVTVSS VL: DVQMTQSPSSVSASVGDRVTITCRSSQSLRHSNGNTYLQWYQQKPGKAPKLLIYKVSNRFSGVPSRFSGSGSGTDFTLTISSLQPEDFATYFCYQSKHVPYTFGQGTKVEIKR", "values": [{"measurement": "EC50 (nM), cytotoxicity, 2D monolayer, HepG2 (High)", "setting": "[1]", "value": 0.09, "unit": "nM"}, {"measurement": "EC50 (nM), cytotoxicity, 2D monolayer, Huh-7 (Mid)", "setting": "[1]", "value": 0.01, "unit": "nM"}, {"measurement": "EC50 (nM), cytotoxicity, 2D monolayer, JHH-5 (Mid)", "setting": "[1]", "value": 0.14, "unit": "nM"}, {"measurement": "EC50 (nM), cytotoxicity, 2D monolayer, JHH-7 (High)", "setting": "[1]", "value": 1, "unit": "nM"}]}, {"binder": "v36180-MC-GGFG-Compound 141 (DAR8) (antibody, human IgG1, kappa, V domains shown, MC-GGFG-Compound 141 drug-linker on reduced cysteines, sites not stated; MC-GGFG-Compound 141 drug-linker on reduced cysteines, sites not stated; DAR 8 for the whole antibody) VH: EVQLVQSGAEVKKPGSSVKVSCKASGYTFTDYEMHWVRQAPGQGLEWIGAIDPETGDTAYNQKFKGRATLTADKSTSTAYMELSSLRSEDTAVYYCTRYFSFAYWGQGTLVTVSS VL: DVQMTQSPSSVSASVGDRVTITCRSSQSLRHSNGNTYLQWYQQKPGKAPKLLIYKVSNRFSGVPSRFSGSGSGTDFTLTISSLQPEDFATYFCYQSKHVPYTFGQGTKVEIKR", "values": [{"measurement": "EC50 (nM), cytotoxicity, 2D monolayer, HepG2 (High)", "setting": "[1]", "value": 0.03, "unit": "nM"}, {"measurement": "EC50 (nM), cytotoxicity, 2D monolayer, Huh-6 (Mid)", "setting": "[1]", "value": 0.12, "unit": "nM"}, {"measurement": "EC50 (nM), cytotoxicity, 2D monolayer, Huh-7 (Mid)", "setting": "[1]", "value": 0.03, "unit": "nM"}, {"measurement": "EC50 (nM), cytotoxicity, 2D monolayer, JHH-5 (Mid)", "setting": "[1]", "value": 0.11, "unit": "nM"}, {"measurement": "EC50 (nM), cytotoxicity, 2D monolayer, JHH-7 (High)", "setting": "[1]", "value": 0.03, "unit": "nM"}]}, {"binder": "v36180-MC-GGFG-AM-Compound 141 (DAR8) (antibody, human IgG1, kappa, V domains shown, MC-GGFG-AM-Compound 141 drug-linker on reduced cysteines, sites not stated; MC-GGFG-AM-Compound 141 drug-linker on reduced cysteines, sites not stated; DAR 8 for the whole antibody) VH: EVQLVQSGAEVKKPGSSVKVSCKASGYTFTDYEMHWVRQAPGQGLEWIGAIDPETGDTAYNQKFKGRATLTADKSTSTAYMELSSLRSEDTAVYYCTRYFSFAYWGQGTLVTVSS VL: DVQMTQSPSSVSASVGDRVTITCRSSQSLRHSNGNTYLQWYQQKPGKAPKLLIYKVSNRFSGVPSRFSGSGSGTDFTLTISSLQPEDFATYFCYQSKHVPYTFGQGTKVEIKR", "values": [{"measurement": "EC50 (nM), cytotoxicity, 2D monolayer, HepG2 (High)", "setting": "[1]", "value": 0.03, "unit": "nM"}, {"measurement": "EC50 (nM), cytotoxicity, 2D monolayer, Huh-6 (Mid)", "setting": "[1]", "value": 0.12, "unit": "nM"}, {"measurement": "EC50 (nM), cytotoxicity, 2D monolayer, Huh-7 (Mid)", "setting": "[1]", "value": 0.01, "unit": "nM"}, {"measurement": "EC50 (nM), cytotoxicity, 2D monolayer, JHH-5 (Mid)", "setting": "[1]", "value": 0.08, "unit": "nM"}, {"measurement": "EC50 (nM), cytotoxicity, 2D monolayer, JHH-7 (High)", "setting": "[1]", "value": 0.02, "unit": "nM"}]}, {"binder": "v40214, H18L6_LC_N33T mAb (antibody, human IgG1, kappa, V domains shown, no number given for this variant) VH: QVQLVQSGAEVKKPGSSVKVSCKASGYTFTDYEMHWVKQAPGHGLEWIGAIDPETGDTAYNQKFKGKATLTADTSTSTAYMELSSLRSEDTAVYYCTRYFSFAYWGQGTLVTVSS VL: EIVLTQSPATLSLSPGERATISCRSSQSLRHSTGNTYLQWYQQKPGQAPRLLIYKVSNRFSGVPARFSGSGSGTDFTLTISSLEPEDFAVYFCYQSKHVPYTFGGGTKVEIKR", "values": [{"measurement": "Kd", "setting": "[2]", "value": 16.4, "unit": "nM"}, {"measurement": "Avg % binding huGPC3 (RU observed/theoretical)", "setting": "[3]", "value": 21.3, "unit": "%"}, {"measurement": "Kd", "setting": "[4]", "value": 19.9, "unit": "nM"}, {"measurement": "Kd Fold difference (hu/cyno)", "setting": "[5]", "value": 1.21, "unit": "fold"}]}, {"binder": "v40221, H18L6_LC_N33S mAb (antibody, human IgG1, kappa, V domains shown, no number given for this variant) VH: QVQLVQSGAEVKKPGSSVKVSCKASGYTFTDYEMHWVKQAPGHGLEWIGAIDPETGDTAYNQKFKGKATLTADTSTSTAYMELSSLRSEDTAVYYCTRYFSFAYWGQGTLVTVSS VL: EIVLTQSPATLSLSPGERATISCRSSQSLRHSSGNTYLQWYQQKPGQAPRLLIYKVSNRFSGVPARFSGSGSGTDFTLTISSLEPEDFAVYFCYQSKHVPYTFGGGTKVEIKR", "values": [{"measurement": "Kd", "setting": "[2]", "value": 15.8, "unit": "nM"}, {"measurement": "Avg % binding huGPC3 (RU observed/theoretical)", "setting": "[3]", "value": 18, "unit": "%"}, {"measurement": "Kd", "setting": "[4]", "value": 19.5, "unit": "nM"}, {"measurement": "Kd Fold difference (hu/cyno)", "setting": "[5]", "value": 1.24, "unit": "fold"}]}, {"binder": "v40215, H18L6_LC_N33V mAb (antibody, human IgG1, kappa, V domains shown, no number given for this variant) VH: QVQLVQSGAEVKKPGSSVKVSCKASGYTFTDYEMHWVKQAPGHGLEWIGAIDPETGDTAYNQKFKGKATLTADTSTSTAYMELSSLRSEDTAVYYCTRYFSFAYWGQGTLVTVSS VL: EIVLTQSPATLSLSPGERATISCRSSQSLRHSVGNTYLQWYQQKPGQAPRLLIYKVSNRFSGVPARFSGSGSGTDFTLTISSLEPEDFAVYFCYQSKHVPYTFGGGTKVEIKR", "values": [{"measurement": "Kd", "setting": "[2]", "value": 17.8, "unit": "nM"}, {"measurement": "Avg % binding huGPC3 (RU observed/theoretical)", "setting": "[3]", "value": 17.5, "unit": "%"}, {"measurement": "Kd", "setting": "[4]", "value": 22.5, "unit": "nM"}, {"measurement": "Kd Fold difference (hu/cyno)", "setting": "[5]", "value": 1.27, "unit": "fold"}]}, {"binder": "v40213, H18L6_LC_N33E mAb (antibody, human IgG1, kappa, V domains shown, no number given for this variant) VH: QVQLVQSGAEVKKPGSSVKVSCKASGYTFTDYEMHWVKQAPGHGLEWIGAIDPETGDTAYNQKFKGKATLTADTSTSTAYMELSSLRSEDTAVYYCTRYFSFAYWGQGTLVTVSS VL: EIVLTQSPATLSLSPGERATISCRSSQSLRHSEGNTYLQWYQQKPGQAPRLLIYKVSNRFSGVPARFSGSGSGTDFTLTISSLEPEDFAVYFCYQSKHVPYTFGGGTKVEIKR", "values": [{"measurement": "Kd", "setting": "[2]", "value": 16.6, "unit": "nM"}, {"measurement": "Avg % binding huGPC3 (RU observed/theoretical)", "setting": "[3]", "value": 14.9, "unit": "%"}, {"measurement": "Kd", "setting": "[4]", "value": 22.7, "unit": "nM"}, {"measurement": "Kd Fold difference (hu/cyno)", "setting": "[5]", "value": 1.37, "unit": "fold"}]}, {"binder": "v40218, H18L6_LC_N33H mAb (antibody, human IgG1, kappa, V domains shown, no number given for this variant) VH: QVQLVQSGAEVKKPGSSVKVSCKASGYTFTDYEMHWVKQAPGHGLEWIGAIDPETGDTAYNQKFKGKATLTADTSTSTAYMELSSLRSEDTAVYYCTRYFSFAYWGQGTLVTVSS VL: EIVLTQSPATLSLSPGERATISCRSSQSLRHSHGNTYLQWYQQKPGQAPRLLIYKVSNRFSGVPARFSGSGSGTDFTLTISSLEPEDFAVYFCYQSKHVPYTFGGGTKVEIKR", "values": [{"measurement": "Kd", "setting": "[2]", "value": 9.57, "unit": "nM"}, {"measurement": "Avg % binding huGPC3 (RU observed/theoretical)", "setting": "[3]", "value": 15.6, "unit": "%"}, {"measurement": "Kd", "setting": "[4]", "value": 20.1, "unit": "nM"}, {"measurement": "Kd Fold difference (hu/cyno)", "setting": "[5]", "value": 2.1, "unit": "fold"}]}]}
